{"source": "paper PMC11242946", "about": "“Inhibition of ACE2–S Protein Interaction by a Short Functional Peptide with a Boomerang Structure” (Molecules, 2024)", "target": "ACE2 on Vero E6 cells (monkey (endogenous in Vero E6))", "assay": "flow cytometry on cells"}
{"substance": "functional peptide KYPAY (K5)", "values": [{"measurement": "IC50", "value": 6.7, "unit": "µM"}]}
